For orientation: EC50 means the concentration giving half of the maximal effect. Higher therefore signals lower potency in that assay.

Consider two compounds from US20260265233A1, “BENZOTHIOPHENE DERIVATIVES AS RXFP1 AGONISTS” (BRISTOL-MYERS SQUIBB COMPANY, priority 2021, published 2026).

For series [1] the following is noted: intravenous (IV) formulation; cited from earlier work.
The target of another series is T1, human RXFP1 (Homo sapiens, UniProt Q9HBX9).
T1 construct: expressed in transfected cells
T1 sequence (Q9HBX9 1-757): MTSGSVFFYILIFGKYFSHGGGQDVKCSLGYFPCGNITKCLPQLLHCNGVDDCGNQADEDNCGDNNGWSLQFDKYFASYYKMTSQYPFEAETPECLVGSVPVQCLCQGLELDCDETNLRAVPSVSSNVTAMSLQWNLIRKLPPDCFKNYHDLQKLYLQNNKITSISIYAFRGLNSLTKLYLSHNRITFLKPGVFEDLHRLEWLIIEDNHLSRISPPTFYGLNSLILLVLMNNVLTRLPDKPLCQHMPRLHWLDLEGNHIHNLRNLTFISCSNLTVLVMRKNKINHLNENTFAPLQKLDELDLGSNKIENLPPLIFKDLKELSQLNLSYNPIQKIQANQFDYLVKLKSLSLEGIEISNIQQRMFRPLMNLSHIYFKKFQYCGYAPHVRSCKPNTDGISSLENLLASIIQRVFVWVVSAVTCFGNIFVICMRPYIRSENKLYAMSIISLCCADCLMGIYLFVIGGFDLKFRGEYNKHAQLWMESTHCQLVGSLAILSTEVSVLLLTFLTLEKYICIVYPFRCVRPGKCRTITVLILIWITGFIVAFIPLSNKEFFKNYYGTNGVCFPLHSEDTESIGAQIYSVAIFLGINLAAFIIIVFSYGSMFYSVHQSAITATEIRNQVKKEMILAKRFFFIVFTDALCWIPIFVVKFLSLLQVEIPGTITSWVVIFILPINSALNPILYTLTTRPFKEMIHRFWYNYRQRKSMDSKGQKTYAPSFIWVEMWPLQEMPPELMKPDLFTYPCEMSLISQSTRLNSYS
Briefly: hRXFP1 HEK293 cAMP assay (HTRF). The format is cell-based. Particulars: HEK293 cells stably expressing human RXFP1; 30 min at rt; intracellular cAMP by HTRF. The method, boiled down:
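Agonism is measured as cAMP by HTRF, quantified from a standard curve via the 665/590 nm ratio and fitted with a four-parameter logistic equation. Compounds (0.010 nM to 50 μM final, 2% DMSO) were applied for 30 min at rt to human RXFP1-expressing HEK293 cells in assay buffer containing 0.5 mM IBMX.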
For orientation: Cyclic AMP is a second messenger, typically raised through Gs and lowered through Gi signalling.

Consider “Serelaxin: "an intravenous (IV) formulation of the recombinant human relaxin peptide with a relatively short first-phase pharmacokinetic half-life of 0.09 hours"”, for which, in series [1], the first-phase pharmacokinetic half-life was 5.4 min.
On human RXFP1, `COc1ccc(-c2cc(CN)ccc2F)cc1C(=O)Nc1c(C(=O)Nc2ccc(F)c(C(F)(F)F)c2)sc2cc(C(F)(F)F)ccc12` [Example 16, 3-(5′-(aminomethyl)-2′-fluoro-4-methoxy-[1,1′-biphenyl]-3-carboxamido)-N-(4-fluoro-3-(trifluoromethyl)phenyl)-6-(trifluoromethyl)benzo[b]thiophene-2-carboxamide] displayed an EC50 of 0.677 µM.
